Measurements reported in US20110135636A1 (SYMPHOGEN A S, published 2011).

Columns and labels:
[1] = molecular target: T1, recombinant human EGFR extracellular domain with 6xHis (human, UniProt P00533 25-645); assay: SPR competition, competitor 1344
T1 construct: In-house produced; also called 6xHis EGFR ECD; soluble human EGFR ECD; not shown: 6xHis tag
Method: (§1) SPR analysis was performed on a Biacore 3000 machine containing four flow cells. A CM5 Biacore chip was conjugated with 10,000 Resonance units (Ru) polyclonal anti-His antibody to flow cells 1-4 according to the manufacturer's instructions. […] Immediately after antigen injection the maximal binding of the Anti-EGFR mAb without competition was established in each flow cell during a reference run. Briefly 5 μl antibody at a concentration of 40 μg/ml was injected over all flow cells with captured EGFR followed by stripping of the antibody/antigen complex with a low pH acid wash (10 sec. contact time with 10 mM Glycine-HCl, pH2). After the determination of Anti-EGFR antibody maximal binding to each flow cell, a competition run was performed during the same Biacore cycle. Flow cells were first saturated with EGFR ECD antigen followed by injection of different reference antibodies or Anti-EGFR antibodies into separate flow cells using the same antigen saturating conditions as outlined above. This step was immediately followed by a second injection of Anti-EGFR antibody over the flow cell saturated with EGFR antigen and competition antibody to minimize the dissociation of either antigen or blocking antibody. Then the antibody/antigen complexes were stripped off with a low pH acid wash (10 sec. contact time with 10 mM Glycine-HCl, pH 2) and the whole cycle beginning with the reference run was repeated with a new Anti-EGFR antibody. The degree of inhibition of tested Anti-EGFR antibodies were determined by comparing the Ru max value of the individual Anti-EGFR antibody before and after competition by introduction of report points recorded two seconds before and after injection of each sample.

[2] = molecular target: T1, recombinant human EGFR extracellular …; assay: SPR competition, competitor Erbitux
Method: as §1

[3] = molecular target: T1, recombinant human EGFR extracellular …; assay: SPR competition, competitor Vectibix
Method: as §1

[4] = molecular target: T1, recombinant human EGFR extracellular …; assay: SPR competition, competitor 1254
Method: as §1

[5] = molecular target: T1, recombinant human EGFR extracellular …; assay: SPR competition, competitor 1024
Method: as §1

[6] = molecular target: T1, recombinant human EGFR extracellular …; assay: SPR competition, competitor 1320
Method: as §1

[7] = molecular target: T1, recombinant human EGFR extracellular …; assay: SPR competition, competitor 992 corr
Method: as §1

[8] = molecular target: T1, recombinant human EGFR extracellular …; assay: SPR competition, competitor 1284
Method: as §1

[9] = molecular target: T1, recombinant human EGFR extracellular …; assay: SPR competition, competitor Ab-5
Method: as §1

[10] = molecular target: T1, recombinant human EGFR extracellular …; assay: SPR competition, competitor Ab-10
Method: as §1

[11] = molecular target: T1, recombinant human EGFR extracellular …; assay: SPR competition, competitor Ab-11
Method: as §1

[12] = molecular target: T1, recombinant human EGFR extracellular …; assay: SPR competition, competitor 1449
Method: as §1

[13] = molecular target: T1, recombinant human EGFR extracellular …; assay: SPR competition, competitor 1347
Method: as §1

[14] = molecular target: T1, recombinant human EGFR extracellular …; assay: SPR competition, competitor 1261
Method: as §1

[15] = molecular target: T1, recombinant human EGFR extracellular …; assay: SPR competition, competitor 1030corr
Method: as §1

[16] = molecular target: T1, recombinant human EGFR extracellular …; assay: SPR competition, competitor 1260
Method: as §1

[17] = molecular target: T1, recombinant human EGFR extracellular …; assay: SPR competition, competitor Vectibix; remark: listed apart in the source
Method: as §1

[18] = molecular target: T1, recombinant human EGFR extracellular …; assay: SPR competition, competitor 1257
Method: as §1

[19] = molecular target: T1, recombinant human EGFR extracellular …; assay: SPR competition, competitor 1277
Method: as §1

[20] = molecular target: T1, recombinant human EGFR extracellular …; assay: SPR competition, competitor Ab-1
Method: as §1

[21] = molecular target: T1, recombinant human EGFR extracellular …; assay: SPR competition, competitor ICR10
Method: as §1

[22] = molecular target: T1, recombinant human EGFR extracellular …; assay: SPR competition, competitor 1208
Method: as §1

[23] = molecular target: T1, recombinant human EGFR extracellular …; assay: SPR competition, competitor Ab-3
Method: as §1

[24] = molecular target: T1, recombinant human EGFR extracellular …; assay: SPR competition, competitor Erbitux; remark: listed apart in the source
Method: as §1

Row | Binder | % inhibition [1] | % inhibition [2] | % inhibition [3] | % inhibition [4] | % inhibition [5] | % inhibition [6] | % inhibition [7] | % inhibition [8] | % inhibition [9] | % inhibition [10] | % inhibition [11] | % inhibition [12] | % inhibition [13] | % inhibition [14] | % inhibition [15] | % inhibition [16] | % inhibition [17] | % inhibition [18] | % inhibition [19] | % inhibition [20] | other results
1 | antibody 1024 (antibody, human IgG1, kappa, V domains shown, Chimeric IgG1 kappa) VH: QVQLQQPGAELVEPGGSVKLSCKASGYTFTSHWMHWVKQRPGQGLEWIGEINPSSGRNNYNEKFKSKATLTVDKSSSTAYMQFSSLTSEDSAVYYCVRYYGYDEAMDYWGQGTSVTVSS VL: DIVMTQAAFSNPVTLGTSASISCRSSKSLLHSNGITYLYWYLQKPGQSPQLLIYQMSNLASGVPDRFSSSGSGTDFTLRISRVEAEDVGVYYCAQNLELPYTFGGGTKLEIKR | 1% | 104% | 102% | 5% | 96% | 86% | -58% | -2% | 0% | -5% | -13% | 78% | 2% | -27% | 3% | 35% | 82% | 22% | -1% | 6% | % inhibition [21]: -3%; % inhibition [22]: -7%; % inhibition [23]: 0%; % inhibition [24]: 104%
2 | antibody 1030 (antibody, human IgG1, kappa, V domains shown, Chimeric IgG1 kappa) VH: EVQLVESGGGLVKPGGSLKLSCAASGFTFSSYALSWVRQTPERRLEWVASISGVGSTYFPDSVKGRFTMSRDNARNILYLQMSSLRSEDTAMYYCARGSDGYFYAMDYWGQGTSVTVSS VL: DIVLTQSPASLAVSLGQRATISCRASKSVSTSGYSFMHWYQLKPGQPPKLLIYLASNLESGVPARFSGSGSGTDFTLNIHPVEEEDAATYYCQHSREFPLTFGGGTKLEIKR | 24% | -1% | 16% | 107% | -1% | 4% | -3% | 32% | 104% | 84% | -5% | 4% | 6% | 8% | 89% | 16% | 17% | 5% | 103% | 98% | % inhibition [21]: 54%; % inhibition [22]: 112%; % inhibition [23]: 6%; % inhibition [24]: -1%
3 | antibody 1257 (antibody, human IgG1, kappa, V domains shown, Chimeric IgG1 kappa) VH: EVQLQQSGPELVKPGASVKIPCKTSGYTFTDYNMAWVKQSHGKSLEWIGDIIPNNGGAIYNQKFKGKATLTVDKSSSTASMELRSLTSEDTAVYFCARKNIYYRYDGAGALDYWGQGTSVTVSS VL: QIVLTQSPAIMSASPGEKVTMTCSASSSVSYIYWYQQKPGSSPRLLIYDASNLASGVPVRFSGSGSGTSYSLTISRMEAEDAATYYCQQWSSYPITFGSGTKLEIKR | 80% | 0% | -2% | 8% | 17% | 15% | 16% | 16% | -5% | 1% | 100% | 15% | 21% | 103% | 4% | 68% | 15% | 90% | 11% | -1% | % inhibition [21]: 22%; % inhibition [22]: 17%; % inhibition [23]: 85%; % inhibition [24]: 0%
